In assay [1] the target is T1, human CD73 on the cell surface (human, UniProt P21589 27-549).
T1 construct: also called CHOK1-huCD73-3F4 cells; human CD73-expressing cells
T1 sequence: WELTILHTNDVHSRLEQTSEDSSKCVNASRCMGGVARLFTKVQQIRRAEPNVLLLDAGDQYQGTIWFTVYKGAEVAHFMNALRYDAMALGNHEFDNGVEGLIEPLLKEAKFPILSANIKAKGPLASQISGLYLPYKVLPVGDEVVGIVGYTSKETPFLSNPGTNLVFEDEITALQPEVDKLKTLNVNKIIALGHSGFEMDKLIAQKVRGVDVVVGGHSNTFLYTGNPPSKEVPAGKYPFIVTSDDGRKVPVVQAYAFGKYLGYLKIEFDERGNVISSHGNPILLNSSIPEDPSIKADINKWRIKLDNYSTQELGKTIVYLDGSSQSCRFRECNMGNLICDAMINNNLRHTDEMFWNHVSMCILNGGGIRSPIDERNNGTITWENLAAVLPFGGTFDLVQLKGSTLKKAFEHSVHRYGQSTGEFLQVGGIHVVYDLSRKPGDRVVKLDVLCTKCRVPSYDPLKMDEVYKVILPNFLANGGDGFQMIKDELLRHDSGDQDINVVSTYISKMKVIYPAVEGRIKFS
Description: flow cytometry on CHOK1-huCD73-3F4 cells, PE anti-human Fc. Here is the method:
(§1) All the antigen-binding proteins were diluted to 30 μg/ml with PBS solution containing 1% BSA (1% BSA/PBS), diluted at 3-fold into 11 gradients and then added to a 96-well U-shaped plate at 20 μL/well, and negative control (1% BSA/PBS was added only) was set up simultaneously. The suspension of human CD73-expressing cells (CHOK1-huCD73-3F4, Huabo Biopharm) in the logarithmic growth phase were collected and centrifuged at 1000 rpm for 5 min, and the culture medium was discarded; then the cells were resuspended with 1% BSA/PBS to a viable cell density of 1×10⁶/mL, and then added into the 96-well U-shaped plate already added with anti-CD73 antigen-binding protein at 20 μL (2×10⁴ cells)/well for reaction at room temperature for 30 min. […] After the reaction, the cells in the 96-well U-shaped plate were resuspended with 1% BSA/PBS and centrifuged at 300 g for 3 min and the supernatant was discarded; after washing in this manner 3 times, and the cells were finally resuspended with 1% BSA/PBS at 100 μL/well, and the fluorescence intensity of the PE channel was measured with a flow cytometer (BD, #Canto II).
A general note: In flow cytometry, cells or beads pass a laser one at a time.

Assay [2] has as its target T2, mouse CD73/NT5E (ACRO Biosystems, Cat No. CD3-M52H9) (mouse, UniProt Q61503 29-551).
T2 construct: Bought protein
T2 sequence (looked up): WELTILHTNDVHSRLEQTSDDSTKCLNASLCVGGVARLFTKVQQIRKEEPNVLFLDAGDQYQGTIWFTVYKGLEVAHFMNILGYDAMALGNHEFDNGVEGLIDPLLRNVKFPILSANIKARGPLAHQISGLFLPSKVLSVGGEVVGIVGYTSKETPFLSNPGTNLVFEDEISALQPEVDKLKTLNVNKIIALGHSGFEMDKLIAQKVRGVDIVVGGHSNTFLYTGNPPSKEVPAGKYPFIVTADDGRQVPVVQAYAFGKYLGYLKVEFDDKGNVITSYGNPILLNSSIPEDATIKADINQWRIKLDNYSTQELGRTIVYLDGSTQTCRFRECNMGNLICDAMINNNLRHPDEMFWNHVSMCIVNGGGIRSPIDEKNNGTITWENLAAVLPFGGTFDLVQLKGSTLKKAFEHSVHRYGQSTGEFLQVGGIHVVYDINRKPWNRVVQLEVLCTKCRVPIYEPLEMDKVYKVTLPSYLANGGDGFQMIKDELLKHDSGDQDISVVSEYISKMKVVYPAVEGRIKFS
The experiment in a line: SPR (Biacore T200), antibody captured on protein A chip. Here is the method:
(§2) The temperatures of the sample chamber and flow path were set at 25° C. The protein A chips separately captured the antigen-binding proteins as ligands, which were immobilized at about 100 RU. […] Ten mM Glycine, pH 1.5, was regenerated for 60 s at a flow rate of […] for multiple cycle kinetic detection. The binding rate constant (ka), dissociation rate constant (kd) and dissociation equilibrium rate constant (KD) were fitted using the Fit local mode of a 1:1 binding model.
Background: SPR reads the build-up and loss of mass on a sensor chip optically.

The target in assay [3] is T3, rat CD73 (Novoprotein, Cat No. CB16) (rat, UniProt P21588 29-551, limits assumed).
T3 construct: Bought protein
T3 sequence (looked up): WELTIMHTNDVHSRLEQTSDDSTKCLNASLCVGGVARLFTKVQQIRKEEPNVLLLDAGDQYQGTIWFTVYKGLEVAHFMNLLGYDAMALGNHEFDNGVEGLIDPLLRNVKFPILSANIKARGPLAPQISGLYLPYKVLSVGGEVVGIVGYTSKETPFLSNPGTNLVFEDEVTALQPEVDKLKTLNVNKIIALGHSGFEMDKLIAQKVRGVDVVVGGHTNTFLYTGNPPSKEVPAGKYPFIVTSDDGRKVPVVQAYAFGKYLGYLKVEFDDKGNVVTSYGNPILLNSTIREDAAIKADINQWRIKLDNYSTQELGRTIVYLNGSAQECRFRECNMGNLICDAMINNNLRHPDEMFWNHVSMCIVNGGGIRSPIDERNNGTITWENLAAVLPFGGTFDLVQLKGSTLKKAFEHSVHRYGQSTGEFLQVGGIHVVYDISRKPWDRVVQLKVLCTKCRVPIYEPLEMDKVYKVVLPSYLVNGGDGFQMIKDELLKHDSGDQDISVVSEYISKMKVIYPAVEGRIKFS
The assay is described as above. As to the method: as §2

The target in assay [4] is T4, human CD73 protein (ACRO Biosystems, Cat No. CD3-H52H7) (human, UniProt P21589 27-547).
T4 sequence: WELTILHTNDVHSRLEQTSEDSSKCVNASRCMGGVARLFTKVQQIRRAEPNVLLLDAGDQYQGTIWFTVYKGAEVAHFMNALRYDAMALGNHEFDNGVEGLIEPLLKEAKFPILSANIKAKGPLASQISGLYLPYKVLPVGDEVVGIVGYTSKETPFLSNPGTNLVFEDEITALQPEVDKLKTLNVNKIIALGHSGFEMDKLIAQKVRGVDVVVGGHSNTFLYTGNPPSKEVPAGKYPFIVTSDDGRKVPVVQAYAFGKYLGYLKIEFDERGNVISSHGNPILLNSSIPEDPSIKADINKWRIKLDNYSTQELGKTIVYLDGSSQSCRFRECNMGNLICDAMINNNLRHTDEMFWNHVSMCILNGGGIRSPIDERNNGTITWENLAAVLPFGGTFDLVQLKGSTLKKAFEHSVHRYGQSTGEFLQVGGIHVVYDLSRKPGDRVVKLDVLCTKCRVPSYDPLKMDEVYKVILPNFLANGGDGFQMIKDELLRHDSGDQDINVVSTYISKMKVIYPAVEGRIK
Description: cell-based or functional assay.

For assay [5], the target named is T4, human CD73 protein (ACRO Biosystems, …). The experiment in a line: SPR (Biacore T200), antibody captured on protein A chip, CD73 as analyte, 1:1 model. Here is the method:
The temperatures of the sample chamber and flow path were set at 25° C. The protein A chips separately captured the antigen-binding proteins as ligands, which were immobilized at about 100 RU. […] Ten mM Glycine, pH 1.5, was regenerated for 60 s at a flow rate of 50 μL/min for multiple cycle kinetic detection. The binding rate constant (ka), dissociation rate constant (kd) and dissociation equilibrium rate constant (KD) were fitted using the Fit local mode of a 1:1 binding model.

The target in assay [6] is T1, human CD73 on the cell surface. The experiment in a line: flow cytometry on CHOK1-huCD73-3F4 cells, PE anti-human Fc. Here is the method: as §1
The source holds these as a separate data set.

Assay [7] has the same target. The experiment in a line: cell-based or functional assay.
For assay [8] the target is unchanged. Description: cell-based or functional assay. The source holds these as a separate data set.

Read-outs that look alike come from different tables or passages of the source.

For orientation: EC50 means the midpoint of the concentration-response curve. A high value points to weaker potency. A word on the Kd: it is a measure of binding affinity in units of concentration. Read a low Kd as tighter binding. As usually defined, the koff is the rate constant with which the complex falls apart. Read a high koff as a short-lived complex. The term kon denotes the second-order rate constant of association.

B1: 900694 (antibody, V domains shown)
VH: EVQLVESGGGLVKPGGSLRLSCAASGFTFSKYAMSWVRQAPGKGLEWVAEISSGGGYINYPDTVTGRFTISRDNAKNSLYLQMNSLRAEDTAVYYCARAIYYYGSSYNYYAMDYWGQGTTVTVSS
VL: DIQMTQSPSSLSASVGDRVTITCRASQDVGTAEAWYQQKPGKAPKLLIYWASTRHTGVPDRFSGSGSGTDFTLTISSLQPEDFATYYCQQYSSYPLTFGQGTKLEIK
notes: Constant regions are not restated; it was detected with anti-human Fc and captured on protein A
Regarding B1, in assay [1], it took 0.646 µg/mL to reach a half-maximal effect (EC50). In assay [2], the binding result is given as “no binding (tested: up to 50 nM analyte)”. In addition, the binding result in assay [3] is reported as “no binding (tested: up to 50 nM analyte)”. Besides, the “EC50(µg/mL), inhibition of recombinant CD73 (CellTiter-Glo)” value in assay [4] was 0.681 µg/mL. In addition, in assay [5], the Kd stood at 1.5 nM, the koff turned out to be 0.000493 s⁻¹ and the kon was 329000 M⁻¹ s⁻¹.

B2: 900565 (antibody, V domains shown)
VH: QAYLQQSGAELVRPGASVKMSCKASGYTFTSYNMHWVKQTPRQGLEWIGAIYPGNGDTSYNQKFKGKATLNVDKSSSTAYMQLSSLTSEDSAVYFCARWGYGSNYAWYFDIWGTGTTVTVSS
VL: DIQMTQSPASLSASVGETVTITCRTSGNIHNYLVWYQQKQGKSPQLLVFNAKTLADGVPSRFSGSGSGTQYSLKINSLQPEDFGSYYCQHFWSTPFTFGSGTKLEIK
notes: Chimeric antibody derived from hybridoma 115B10; it was detected with anti-human Fc
Molecule B2 returned an EC50 in assay [6] of 2.14 µg/mL. Besides, in assay [7], the “EC50(µg/mL), inhibition of enzyme activity of CD73 on CHOK1-huCD73-3F4 cells” value amounted to 1.62 µg/mL.

B3: 900222 (antibody, from another filing, V domains shown)
VH: QVQLVESGGGVVQPGRSLRLSCAASGFTFSNYGMHWVRQAPGKGLEWVAVILYDGSNKYYPDSVKGRFTISRDNSKNTLYLQMNSLRAEDTAVYYCARGGSSWYPDSFDIWGQGTMVTVSS
VL: DIQMTQSPSSLSASVGDRVTITCRASQGISSWLAWYQQKPEKAPKSLIYAASSLQSGVPSRFSGSGSGTDFTLTISSLQPEDFATYYCQQYNSYPLTFGGGTKVEIKR
As for B3, the Endocytosis efficiency (%) in assay [8] is 44.2%.

The values above are taken from patent US20240026024A1 (SHANGHAI HUAOTA BIOPHARMACEUTICAL, published 2024).
